Test [1] deals with T1, cynomolgus CCR8 (cynomolgus, UniProt G7NYJ2 1-355).
T1 construct: whole, on cells
The test is described as follows: FACS on HEK293-cynomolgus CCR8 cells. How it is done: (§1) A total of 5×10⁴ cells for each well were seeded in 96-well plates and washed with FACS buffer (DPBD containing 1.5% FBS) for once. Antibodies were prepared with 3-fold serial dilution ranging from 100 nM to 0.0017 nM in FACS buffer. Cells were incubated with 50 μL of diluted antibodies at 4° C. for 1 hour. […] After primary antibody incubation, cells were washed for 3 times by FACS buffer. Then, cells were stained by Alexa Flu647 labeled anti-human IgG secondary antibody (Jackson ImmunoResearch, #109606170) or Alexa Flu647 labeled anti-mouse IgG secondary antibody (Jackson ImmunoResearch, #115605072) at 1:600 dilution in FACS buffer for 0.5 hour at 4° C. After washed for 3 times, Flow cytometry was performed to measure the binding.
T1 sequence (G7NYJ2 entry or part of it): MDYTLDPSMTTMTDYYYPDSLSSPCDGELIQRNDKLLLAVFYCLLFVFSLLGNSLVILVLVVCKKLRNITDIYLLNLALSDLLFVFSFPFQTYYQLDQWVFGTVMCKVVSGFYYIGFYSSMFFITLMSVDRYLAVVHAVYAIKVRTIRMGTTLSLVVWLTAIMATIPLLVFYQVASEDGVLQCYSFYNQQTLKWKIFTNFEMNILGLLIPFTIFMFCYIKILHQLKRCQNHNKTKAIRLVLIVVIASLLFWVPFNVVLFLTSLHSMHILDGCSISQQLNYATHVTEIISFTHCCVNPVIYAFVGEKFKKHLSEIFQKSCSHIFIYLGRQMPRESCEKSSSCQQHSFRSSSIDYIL

In test [2] the target is T2, human CCR8 (human, UniProt P51685 1-355).
T2 construct: whole, on cells; also called hCCR8
The test is described as follows: FACS on HEK293-human CCR8 cells. How it is done: as §1
T2 sequence (P51685 whole entry, the tested form may be a part): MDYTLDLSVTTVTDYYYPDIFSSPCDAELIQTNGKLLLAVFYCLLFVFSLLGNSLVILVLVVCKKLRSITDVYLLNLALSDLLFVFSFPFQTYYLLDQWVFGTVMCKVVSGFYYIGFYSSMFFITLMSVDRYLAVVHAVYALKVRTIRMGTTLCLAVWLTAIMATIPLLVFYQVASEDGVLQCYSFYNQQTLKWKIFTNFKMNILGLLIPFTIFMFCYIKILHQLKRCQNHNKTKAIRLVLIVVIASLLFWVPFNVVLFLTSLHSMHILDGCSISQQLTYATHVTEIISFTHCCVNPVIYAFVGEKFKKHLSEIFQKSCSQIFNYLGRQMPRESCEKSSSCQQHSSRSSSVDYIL

The target in test [3] is T2, human CCR8. In words: FACS, competition with AF647-human CCL1 on CHO-K1-human CCR8 cells. For orientation: A flow cytometer gives signals particle by particle.
Test [4] has as its target T2, human CCR8. In words: cell-based or functional assay.
The target in test [5] is T2, human CCR8. In words: FACS, competition with AF647-human CCL1 on CHO-K1-human CCR8 cells. As to the method: (§2) Antibodies were prepared with 3-fold serial dilution ranging from 200 nM to 0.01 nM in FACS buffer. Then, cells were washed by FACS buffer for three times after incubation. […] FlowJo software was used for analysis. Data was plotted as the logarithm of antibody concentration versus mean fluorescence signals. IC₅₀ values were determined in GraphPad Prism 8 (GraphPad Software) using a log(agonist) vs. response-Variable slope (4 parameters) curve fit.
This is another data set of the same source.

In test [6] the target is T2, human CCR8. The test is described as follows: FACS, competition with AF647-human CCL1 on HEK293-human CCR8 cells. As to the method: as §2
For test [7], the target named is T2, human CCR8. In words: cell-based or functional assay. The source holds these as a separate data set.
In test [8] the target is T2, human CCR8. The test is described as follows: FACS on HEK293-human CCR8 cells. How it is done:
(§3) Binding affinities of NG site removed antibodies were determined on human CCR8 and cynomolgus CCR8 overexpression cells. Briefly, CFSE labeled HEK293-human CCR8 cells or CFSE labeled HEK293-cynomolgus CCR8 cells were mixed with HEK293 cells. The mixed ratio was 1:1. A total of 5×10⁴ mixed cells for each well were seeded in 96-well plates and washed by FACS buffer (DPBS containing 1% FBS) once. Cells were incubated by serial diluted purified hybridoma antibodies for 1 hour at 4° C. Antibodies were prepared with 3-fold serial dilution ranging from 100 nM to 0.0017 nM or from 25.3165 nM to 0.0004 nM in FACS buffer. […] After primary antibody incubation, cells were washed by FACS buffer for three times. Then, cells were stained with secondary antibody (Alexa Flu647-conj gated rabbit anti-mouse IgG, Jackson ImmunoResearch, #315606046) at 1:600 dilution in FACS buffer, incubated for 0.5 hour at 4° C. […] FlowJo software was used for analysis. Data was plotted as the logarithm of antibody concentration versus mean fluorescence signals. EC₅₀ values were calculated in GraphPad Prism 8 (GraphPad Software) using a log (agonist) vs. response-Variable slope (4 parameters) curve fit.
The source holds these as a separate data set.

For test [9], the target named is T1, cynomolgus CCR8. The test is described as follows: FACS on HEK293-cynomolgus CCR8 cells. How it is done: as §3
This is another data set of the same source.

Test [10] addresses T2, human CCR8. In words: FACS, competition with AF647-human CCL1 on CHO-K1-human CCR8 cells. As to the method: Blocking curves were generated to rank the blocking activities of PTM sites removed antibodies. Briefly, a total of 5×10⁴ CHO-K1-human CCR8 cells for each well were seeded in 96-well plate. Cells were incubated by series diluted purified hybridoma antibodies and 4 nM AF647 labeled human CCL1 (Almac, #CAF-07) for 1 hour at 4° C. Antibodies were prepared with 3-fold serial dilution ranging from 100 nM to 0.0051 nM in FACS buffer. Then, cells were washed by FACS buffer for three times after incubation. […] FlowJo software was used for analysis. Data was plotted as the logarithm of antibody concentration versus mean fluorescence signals. IC₅₀ values were determined in GraphPad Prism 8 (GraphPad Software) using a log(agonist) vs. response-Variable slope (4 parameters) curve fit.
The source holds these as a separate data set.

Test [11] has as its target T3, human CCR8 (human, UniProt P51685 1-355).
T3 construct: whole, on cells; In the β-arrestin assay CCR8 is fused to the ProLink (PK) tag; also called hCCR8; CHO-K1-human CCR8
The test is described as follows: FACS on HEK293-human CCR8 cells. As to the method: (§4) The binding affinities of purified antibodies were determined on human CCR8 and cynomolgus CCR8 over-expressing cells. Briefly, CFSE (Life technology, Cat #: C34554) labeled CHO-K1-human CCR8 cells mixed with CHO-K1 cells, CFSE labeled HEK293-human CCR8 cells mixed with H1EK293 cells, or CFSE labeled H1EK293-cynomolgus CCR8 cells mixed with HTEK293 cells were used in the assay. The mix ratio was 1:1. A total of 5×10⁴ mixed cells for each well were seeded in 96-well plate and washed by FACS buffer (DPBS containing 10% FBS) once. Cells were incubated by series diluted purified hybridoma antibodies for 1 hour at 4° C. Antibodies were prepared with 3-fold serial dilution ranging from 200 nM to 0.003 nM in FACS buffer. After primary antibody incubation, cells were washed by FACS buffer for three times. Then, cells were stained with secondary antibody (Alexa Flu647-conj gated rabbit anti-mouse IgG, Jackson ImmunoResearch, #315606046) at 1:600 dilution in FACS buffer and incubated for 0.5 hour at 4° C. […] FlowJo software was used for analysis. Data was plotted as the logarithm of antibody concentration versus mean fluorescence signals. EC₅₀ values were calculated in GraphPad Prism 8 (GraphPad Software) using a log(agonist) vs. response-Variable slope (4 parameters) curve fit. […] The EC₅₀s of the selected antibodies on human CCR8 are less than 5 nM except those of 262C2G7 and 234G9C12. The EC₅₀s of the selected antibodies on cynomolgus CCR8 are less than 1 nM except that of 348E2D11 (Table 8).
T3 sequence (P51685 whole entry, the tested form may be a part): as above

For test [12], the target named is T4, cynomolgus CCR8 (cynomolgus, UniProt G7NYJ2 1-355).
T4 construct: whole, on cells; also called HEK293-Cynomolgus CCR8; ExpiCHO-S cynomolgus CCR8
The test is described as follows: FACS, hybridoma supernatant on cynomolgus CCR8 cells. How it is done:
(§5) Binding of hybridoma supernatant on CHO-K1-human CCR8 and ExpiCHO-S cynomolgus CCR8 cells. A total of 660 96-well plates were seeded and screened by FACS binding from the hybridoma derived from immunized animals.
(§6) To obtain antibodies cross-reactive to human and cynomolgus CCR8, hybridomas from mice immunized with human and cynomolgus CCR8 DNAs were screened by FACS. Briefly, 50 μL ExpiCHO-S cells transfected with human CCR8 or cynomolgus CCR8 (cell density: 2×10⁶ cells/mL, viability>90%) were incubated with equal volume hybridoma supernatant in 96 well plate (Corning) at 4° C. for 1 hour. […] Finally, the mixture was washed and resuspended with FACS buffer, and subjected to FACS analysis on BD FACS Celesta.
T4 sequence (G7NYJ2 entry or part of it): as the sequence (G7NYJ2 entry or part of it) above

For test [13], the target named is T3, human CCR8. In words: FACS, hybridoma supernatant on CHO-K1-human CCR8 cells. As to the method:
as §5, §6

Test [14] has as its target T4, cynomolgus CCR8. In words: FACS on HEK293-Cynomolgus CCR8 cells. How it is done:
as §4

The target in test [15] is T3, human CCR8. The test is described as follows: FACS on CHO-K1-human CCR8 cells. As to the method: as §4
In test [16] the target is T3, human CCR8. The test is described as follows: FACS competition, hybridoma supernatant with 4 nM AF647-human CCL1 on human CCR8 cells.

Residue numbers refer to the chain shown, from its start.

A word on the EC50: it is the concentration that produces a half-maximal response. Higher therefore signals a need for much substance. Broadly, the IC50 is the concentration that inhibits the measured activity by half. High values mean a need for much substance, low ones inhibition by little substance.

B1: Hu149-4 (antibody, human IgG1, V domains shown)
VH: EVQLVESGGGLVQPGGSLKLSCAASGFTFNTYAMNWVRQASGKGLEWVGRIRSKSNFYATYYAASVKGRFTISRDDSKNTAYLQMNSLKTEDTAVYYCTRGRDYGSSYAMDYWGQGTLVTVSS
VL: DIVMTQSPLSLPVTPGEPASISCRSSKSLLHSNANTYLYWFLQKPGQSPQLLIYRMSNLASGVPDRFSGSGSGTDFTLKISRVEAEDVGVYYCMQHLEYPLTFGGGTKVELK
notes: humanized, human IgG1; also called Hu149-4 HuIgG1
Take B1: in the test with cynomolgus CCR8 [1], the midpoint of the response, the EC50, lay at 0.081 nM and the “Max MFI” value was 26500 MFI. In addition, in the test with human CCR8 [2], the EC50 came out at 0.0518 nM and the “Max MFI” value is 7470 MFI. In the test with human CCR8 [3], the half-inhibitory concentration (IC50) was 0.137 nM and the “Max Inhibition (%)” value came to 99.5%. In the test with human CCR8 [4], the “EC50, ADCC with human PBMC” value turned out to be 0.002 nM and the “Max specific lysis (%), ADCC with human PBMC” value turned out to be 8.76%.

B2: 204A2G12 (antibody, V domains shown)
VH: DVQLQESGPGLVKPSQSLSLTCSVTGYSITSGYYWNWIRQFPGNKLEWMGYISYDGTNNYNPSLKNRISITRDTSKNQFFLKLTSVTTEDTATYYCARQVGLRRAWFAYWGQGTLVTVSA
VL: DIQMTQSSSFLSVSLGGRVTITCKASDHINYWLAWYQQKPGNAPRLLISGATSLETGVPSRFSGSGSGKDYTLTITSLQNEDVATYYCHQYWSTPTFGSGTKLEIK
notes: purified murine hybridoma antibody
As for B2, in the test with human CCR8 [5], the half-maximal inhibitory concentration (IC50) came out at 2.73 nM and the “Max Inhibition (%)” value was found to be 95%. For the same molecule, in the test with human CCR8 [6], the IC50 was 1.64 nM and the “Max Inhibition (%)” value was determined as 87.6%. Moreover, in the test with human CCR8 [7], the “IC50, inhibition of CCL1 induced β-Arrestin recruitment” value (“IC50, inhibition” for short) is 1.7 nM and the “Max Inhibition (%), CCL1 induced β-Arrestin recruitment” value worked out at 30.9%.

B3: 149F2C10 (antibody, V domains shown)
VH: EVQLVESGGGLVQPKGSLKLSCAASGFTFNTYAMNWVRQAPGKGLEWVARIRSKSNFYATYYADSVKDRFTISRDDSQDMLYLQMNILKTEDTAIYYCVRGRDYGSSYAMDYWGQGTSVTVSS
VL: DIVMTQAAPSVPVTPGESVSISCRSSKSLLHSNGNTYLYWFLQRPGQSPQLLIYRMSNLASGVPDRFSGSGSGTAFTLRISRVEAEDVGVYYCMQHLEYPLTFGAGTKLELK
notes: as for B2
Take B3: in the test with human CCR8 [5], the IC50 came to 0.917 nM and the “Max Inhibition (%)” value came out at 98%. For the same molecule, in the test with human CCR8 [6], the half-maximal inhibitory concentration (IC50) amounted to 0.733 nM and the “Max Inhibition (%)” value was 96.4%. In addition, in the test with human CCR8 [8], the EC50 worked out at 0.173 nM and the “Max MFI” value was 1930 MFI. For the same molecule, in the test with cynomolgus CCR8 [9], a half-maximal effect (EC50) was put at 0.145 nM and the “Max MFI” value turned out to be 3440 MFI. Besides, in the test with human CCR8 [7], the “IC50, inhibition” value stood at 0.61 nM and the “Max Inhibition (%), CCL1 induced β-Arrestin recruitment” value was 32%. Also, in the test with human CCR8 [10], the IC50 is 0.97 nM and the “Max Inhibition (%)” value stood at 79.4%.

B4: 153D4G2 (antibody, V domains shown)
VH: B3 VH
VL: B3 VL
notes: Murine hybridoma antibody; also called 153D3G2; 1531D4G2
Consider B4, for which the EC50 with human CCR8 [11] was 0.24 nM; with cynomolgus CCR8 [14], 0.699 nM; with human CCR8 [15], 0.64 nM. The “Max MFI” value with human CCR8 [11] is 11600 MFI; in the test with cynomolgus CCR8 [14] it was 10700 MFI; with human CCR8 [15], 51400 MFI. The results for the “Binding Ratio (GFP + MFI)/(GFP - MFI)” value in the test with cynomolgus CCR8 [12] and with human CCR8 [13] were 127 and 215, respectively. The “Inhibition Rate (%)” value in the test with human CCR8 [16] was found to be 99.1%.

B5: 153D4G2 (antibody, V domains shown)
VH: B3 VH
VL: B3 VL
notes: as for B2
Regarding B5, in the test with human CCR8 [5], the IC50 turned out to be 0.661 nM and the “Max Inhibition (%)” value came to 98.2%. Further, in the test with human CCR8 [6], the IC50 worked out at 0.836 nM and the “Max Inhibition (%)” value was 96.2%. In the test with human CCR8 [7], the “IC50, inhibition” value amounted to 6.57 nM and the “Max Inhibition (%), CCL1 induced β-Arrestin recruitment” value turned out to be 33.8%.

B6: 164G10D6 (antibody, V domains shown)
VH: B3 VH
VL: B3 VL
notes: as for B2
As for B6, in the test with human CCR8 [5], the half-maximal inhibitory concentration (IC50) was 0.602 nM and the “Max Inhibition (%)” value came out at 97.9%. Besides, in the test with human CCR8 [6], the half-maximal inhibitory concentration (IC50) turned out to be 0.599 nM and the “Max Inhibition (%)” value worked out at 96.6%. For the same molecule, in the test with human CCR8 [7], the “IC50, inhibition” value turned out to be 0.46 nM and the “Max Inhibition (%), CCL1 induced β-Arrestin recruitment” value was 42%.

B7: 160D1E3 (antibody, V domains shown)
VH: B3 VH with F57Y, I87N
VL: B3 VL
notes: as for B2
With B7, in the test with human CCR8 [5], the IC50 amounted to 0.728 nM and the “Max Inhibition (%)” value came out at 98%. Further, in the test with human CCR8 [6], the concentration for half-maximal inhibition (IC50) was 0.891 nM and the “Max Inhibition (%)” value came out at 100%. In addition, in the test with human CCR8 [7], the “IC50, inhibition” value was 1.04 nM and the “Max Inhibition (%), CCL1 induced β-Arrestin recruitment” value turned out to be 41.3%.
